The values that follow come from patent publication US20210324051A1 (published 2021).

The labels stand for the following.
T1: EBOV Mayinga strain GP ectodomain containing the glycan cap and mucin-like domain (Ebola virus, Mayinga strain, UniProt Q05320 33-650)
T1 chain: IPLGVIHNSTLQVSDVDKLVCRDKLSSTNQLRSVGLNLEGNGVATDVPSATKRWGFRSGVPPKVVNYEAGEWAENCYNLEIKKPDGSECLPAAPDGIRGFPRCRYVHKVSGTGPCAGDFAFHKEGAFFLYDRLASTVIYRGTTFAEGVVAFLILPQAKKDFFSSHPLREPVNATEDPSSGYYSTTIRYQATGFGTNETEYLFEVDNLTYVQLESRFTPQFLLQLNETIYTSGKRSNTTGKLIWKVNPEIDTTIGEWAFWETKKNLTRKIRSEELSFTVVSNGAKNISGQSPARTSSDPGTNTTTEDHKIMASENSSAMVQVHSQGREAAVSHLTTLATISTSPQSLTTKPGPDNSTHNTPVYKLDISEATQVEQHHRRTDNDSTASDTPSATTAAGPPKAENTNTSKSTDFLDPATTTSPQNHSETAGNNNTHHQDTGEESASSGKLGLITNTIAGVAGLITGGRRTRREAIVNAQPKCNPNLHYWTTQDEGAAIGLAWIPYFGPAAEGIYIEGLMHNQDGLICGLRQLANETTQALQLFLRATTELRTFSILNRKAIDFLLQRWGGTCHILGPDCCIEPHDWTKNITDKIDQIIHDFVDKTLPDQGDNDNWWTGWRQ

T2: EBOV Mayinga strain cleaved GP ectodomain (Ebola virus, Mayinga strain, UniProt Q05320 33-650)
T2 chain: T1 chain

T3: Ravn strain cleaved MARV GP ectodomain (Marburg virus, Ravn strain, UniProt Q1PDC7 19-648)
T3 chain: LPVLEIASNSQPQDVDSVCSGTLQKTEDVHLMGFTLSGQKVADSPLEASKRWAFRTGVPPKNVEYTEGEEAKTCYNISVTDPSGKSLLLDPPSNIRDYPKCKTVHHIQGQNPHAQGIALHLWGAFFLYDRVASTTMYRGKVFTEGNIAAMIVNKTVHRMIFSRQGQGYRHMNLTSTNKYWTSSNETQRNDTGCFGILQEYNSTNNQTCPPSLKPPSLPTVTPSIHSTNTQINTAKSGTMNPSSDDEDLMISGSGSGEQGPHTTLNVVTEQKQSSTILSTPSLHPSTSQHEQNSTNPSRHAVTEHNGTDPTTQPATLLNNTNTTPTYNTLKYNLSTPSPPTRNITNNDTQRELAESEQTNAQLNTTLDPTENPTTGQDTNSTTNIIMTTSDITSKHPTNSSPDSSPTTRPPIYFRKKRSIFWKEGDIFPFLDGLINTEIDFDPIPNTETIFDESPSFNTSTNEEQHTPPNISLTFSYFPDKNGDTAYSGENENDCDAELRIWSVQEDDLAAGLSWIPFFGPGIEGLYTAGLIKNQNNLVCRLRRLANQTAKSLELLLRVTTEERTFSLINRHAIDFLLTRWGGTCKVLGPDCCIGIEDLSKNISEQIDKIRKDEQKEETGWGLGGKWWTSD

T4: Angola strain MARV GP ectodomain containing the mucin-like domain (Marburg virus, Angola strain, UniProt Q1PD50 19-648)
T4 chain: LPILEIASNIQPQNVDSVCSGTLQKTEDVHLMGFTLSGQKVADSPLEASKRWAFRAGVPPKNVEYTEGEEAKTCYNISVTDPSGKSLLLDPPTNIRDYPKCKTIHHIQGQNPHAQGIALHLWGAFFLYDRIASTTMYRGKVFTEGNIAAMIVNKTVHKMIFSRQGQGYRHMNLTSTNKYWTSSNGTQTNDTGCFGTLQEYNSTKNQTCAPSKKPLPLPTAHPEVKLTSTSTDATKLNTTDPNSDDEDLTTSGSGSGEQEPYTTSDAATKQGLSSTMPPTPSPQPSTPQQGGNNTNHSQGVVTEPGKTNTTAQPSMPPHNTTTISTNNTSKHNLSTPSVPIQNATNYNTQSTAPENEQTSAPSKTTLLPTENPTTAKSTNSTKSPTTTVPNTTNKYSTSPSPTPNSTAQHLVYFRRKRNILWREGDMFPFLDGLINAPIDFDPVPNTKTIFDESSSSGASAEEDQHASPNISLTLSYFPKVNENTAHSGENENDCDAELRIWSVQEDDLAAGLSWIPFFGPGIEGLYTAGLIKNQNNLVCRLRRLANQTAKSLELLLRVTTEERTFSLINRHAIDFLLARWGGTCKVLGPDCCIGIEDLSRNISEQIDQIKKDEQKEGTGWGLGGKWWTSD

B1: MR201 (antibody, V domains shown)
VH: QLQLQESGPGLVKPSETLFLSCAVSGGSIAGSTHYWGWIRQPPGKGLEWIGSISESGSTYHNPSLKSRVTISVDTSKNYFSLNLSSVTAADTAVYYCARIVGQSGTFIYYYYAMDVWGTGTLVTVSS
VL: DIQLTQSPSFLSASVGDRVTITCRASQGISSYLAWYQQKPGKAPKLLIYAASTLQRGVPSRFSGSGSGTEFTLTISSLQPEDSATYYCQQLNSYLALIFGGGT
B2: MR241 (antibody, V domains shown)
VH: QVQLQESGPGLVKPSETLSLTCTVSGASISGNFWSWIRQPPGKGLEYIGYMSDIGTTNYSPSLKSRVTISVDTSKNQFSLNLTSVTAADAAVYYCARLVAVPGFFYHYYMDVWGEGTLVTVSS
VL: DIVMTQSPSSVSASVGDRVTITCRASQGISGWLAWYQQKPGKAPKLLIYATSTLQSGVPSRFSGSESGTAFTLTISSLQPEDFATYYCQQANSFPLTFGGGTKVEIK
B3: MR78 human monoclonal antibody (antibody, V domains shown)
VH: QLQLQESGPGLVKPSETLSLTCTVSGGSISSSSYYWGWIRQPPGKGLEWIGSVYYSGGASYNPSLKSRATISVDTSKNQFSLNLDSVSAADTAIYYCASIYGSGTFYYYFYMDVWGKGSTVTVSS
VL: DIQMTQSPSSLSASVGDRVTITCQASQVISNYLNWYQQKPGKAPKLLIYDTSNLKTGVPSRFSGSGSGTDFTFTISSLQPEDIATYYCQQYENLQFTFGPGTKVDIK

One experiment has as its target T1, EBOV Mayinga strain GP ectodomain …. The experiment is described as follows: ELISA.
In the case of B1, the EC50 is > 1000 µg/mL.

As for B2, the EC50 is > 1000 µg/mL.

Take B3: the EC50 is > 1000 µg/mL.

For the next experiment, the target named is T2, EBOV Mayinga strain cleaved GP …. In words: ELISA.
B1: the EC50 was > 1000 µg/mL.

On to B2, for which the EC50 is > 1000 µg/mL.

Take B3: the midpoint of the response, the EC50, lay at 107 µg/mL.

The next experiment has as its target T3, Ravn strain cleaved MARV GP ectodomain. In words: ELISA.
The molecule B1 returned an EC50 of 0.5 µg/mL.

In turn, B2 yielded an EC50 of 1.2 µg/mL.

B3 had an EC50 of 1.1 µg/mL.

The target in the next experiment is T4, Angola strain MARV GP ectodomain …. The experiment is described as follows: ELISA.
B1 had a concentration giving a half-maximal response (EC50) of 1.5 µg/mL.

In turn, B2 had a 50% effective concentration (EC50) of 2.2 µg/mL. This EC50 and that of the molecule before are within 1.5-fold of each other.

For the molecule B3, the EC50 was 1.4 µg/mL.

In the next experiment the target is EBOV Mayinga strain GP ectodomain lacking residues 314-462 of the mucin-like domain (Ebola virus, Mayinga strain, UniProt Q05320 33-650). The experiment is described as follows: ELISA.
In the case of B1, the EC50 is > 1000 µg/mL.

As for B2, the EC50 was > 1000 µg/mL.

Turning to B3, the EC50 is > 1000 µg/mL.

A further experiment addresses Angola strain MARV GP ectodomain lacking residues 257-425 of the mucin-like domain (Marburg virus, Angola strain, UniProt Q1PD50 19-648). The experiment is described as follows: ELISA.
B1 displayed an EC50 of 1.9 µg/mL.

As for B2, the EC50 is 4 µg/mL.

Molecule B3 had an EC50 of 2.3 µg/mL.
